Assay: soluble on expression in E. coli; label from the status in PepcDB or PDB records

| Sequence | soluble on expression in E. coli |
| --- | --- |
| MGSDKIHHHHHHMVAQIQELEAQHWVKTRSSLDPNESTFLIWKGKIYAFIPGEKRQLLFKILGLSVSRCIPTAEGSWDFTSRELTYYLNPKTDEILRKWENPWTSETVPVIHVANNPVQGKFEGNFPAQVDGDSTTFVFDIFPYYPNPLADDPKFAEYSPNPIYQAAELFKLTVPTADLFNSALPSVSELKLSWDRIGQWLPWMKMGDRPGQLIYSAVGSKVNGLTELPPLLQDEINNRIPLYKQAPKALIDGEDMTSWLYFQKHFPAYLAGEIFPLPQAEEL | not soluble |
| MSDPVADFLAREQNLFADFDGAPPAAAAANPDAPEADAPAPALDDDFGDLQIAGDEPPPVVHPTDSGVDLDGLVDDNAAAPAIVVPAVEPMVNGNHSASSGGSKGPSPILSTVPRIEAEKIRLWKAQQEQLLSKKDEAEEKKKIELRANAKKELEEWYKQREKTLQLSHDENLKNEKSNQELFAKQQDGDAQWETVNKLVDQQKSKSGKDLSRLKTLLAGLKHAGK | not soluble |
| MGSDKIHHHHHHMHNVDQQELSKFEQMAHSWWDPNGSFKPIHLLNPLRFNYIQTKANGLFGKKVLDVGCGGGILSEAMAQAGAIVTGIDMTTEPLEIAKQHAIENGLTIHYQQTTVEDLRLNHTACNAEKFDVVTCMEMLEHVPDPLSVIQSCKALLKPDGVLFLSTINRTLKAYMLVVIGAEYLLKMLPKGTHEFEKFIKPAELLTWCDQASLECKEMKGYHFNPLTEKFWLNNDVSCNYIAMLKAK | not soluble |
| MVAASKEFVFHHTFKDVSQLEDGDFFKSPEEIHYNAEWFILVIRTKDQLEAYLHCDNEKDDNVAWTVDAEFSLKIASSSGSYAMKFQKGCFDGFGLGWNDFVSWDSLTEDFLYDNSFTIEACVKITKMTGFSKDVLRSFDESEKRFSDVILVVGDEKFYVLKLFLASHSSYFNALFLGKFKEADQSEVTLQNIDPTDFQSLLEVLYGEPAIDDGTIDGVLLLAHMLDVTLAIRKCEEFLIEKSMKSMRELLKMANQYQLENLKVKFYFLKIPEN | not soluble |
| QTINKIDLQALEESQIDWAKYQPHQAVVLKARKQLRDHQQTALNATAAGLNDAERGKLIMACGTGKTFTSLKIAERLAGKGKRVLFLVPSLSLLSQTLTEWTQESETPLHSFAVCSDSDVGKKRKADEDTVQVFTHELRYPATTKADRLAAEMLKRHDAEHMSVVFSTYHSIDVISRAQHEYDLAAFDLVICDEAHRTTGATFDDDDESTFVRIHDVDYIRAIKRLYMTA | not soluble |
| MGSDKIHHHHHHHEEADYSQEAHHLVEFGTLLQDDPNVIVPKYHADLSTRDVLAMDFVPSHPIDDLEAADQSERDRVATQLIALMMREVFSFQRVQSDPNFANFRWQPDTGRVVLLDFGATRVLSDNLVNAARQVLRPALDNDLTALANALRELGLLDDALPDQARKTILEMVALANEPMMDPDGFDFGNTSLVTELRTSGMALGQDRSIQSIPPIEVLYLQRKAAGLFLLATRLRARVDLRSLFKS | not soluble |
| MGSDKIHHHHHHLRDATSQIGQTVVGEAVRLVSFRPLGNLANHTLLMAAIVMMQSKHPDQFEKSNEILDTLMEREMHHPVVLTWAGIWHVMRVQKGLSGDRRKSTLMAENLANAALAQDPAFSLAHTLKGMIASYLTFDFDNAQYSYDKALQDNPNEALALLLKGATRAMQNRPDEGVVLTEAARKLTPLGPQRYYFDSLAAAVSLAARDYNRAIELADRSLEENDSYPSTLRTKAIALQMSGRSDEARHVVESLMKVTPDFSLSRYMQEHAAGFTPSGPDWASALREAGVPE | not soluble |
| EIHHRIKNNLQVICSLLSLEAERFSDEKMLETLKESQNRVASMALIHEELYKGDKNDTLDFAAYLRKLTADLFSSYNLGNDNISLKMDL | not soluble |
| VLASILLSQAAYESNYGSSLLSVKYHNIYSLPARPGQEHIYLKDNVYSKGKWQYQKVDFAVFRDWSSSMSSYLEELRQGRWGESTYKEVAGTTSYKVAAEKLQAAGFNSDPDYTKHLISIIETYNL | not soluble |
| MAKLTRLGDLERAVMDHLWSRTEPQTVRQVHEALSARRDLAYTTVMTVLQRLAKKNLVLQIRDDRAHRYAPVHGRDELVAGLMVDALAQAEDSGSRQAALVHFVERVGADEADALRRALAELEAGHGNRPPAGAATET | soluble |
| METFILSSDSDDDSGPPPSKRRTIEGIPRSFSGDKKIRFSFGASNMSQDTTQEIIPEDTDTVPLTIPSTPALSGKFDSKTPKSVRRRSVSMSCFTPIVETINQPPTNQACSSFLQKEYNFHDLSSDEEGGDGGAGCSKDEDKIIEDNLNLRALLSPEKKKRKEKIEEVQNEFYGVYCLISRSDRPCYKNRCYIGYTVDPNRRIMQHNGGRDKGGAKKTDSRGPWDMVCVVHGFPNHVAALHFEWAWQNPLVSKSLKEKQLRKERKETPFAFQLRIACELMNSSAFCRFALTFRWLITTEELPFPTSCVPPDHTKLRFGKVKKEMSLVPSKREDYLEMGECRICGKDIEKLWSLVRCISATCPSHFHSKCLSENGLKLKNEHVDHVYPLKANCPTCGQFYLWGDIIREQRRIIKISTKCAEEFQNMVVRKELPHREISPISSKK | not soluble |
| MLTIIKTILDVIVGVKERDYVKNTFNQLLKEKNITNYQYIRTAGNQILIDDRDILYVIHDKGWVSRGYGRITDIELSIDDSVAFQSSLSSATGRAIAGGVLAGGVGAIIGGVTGRKNGKKIVHRITLTISFNTPDRPYARVTFLDNQQGVDIYSDEYKRAEEDALYWSKLISSLMN | not soluble |
| MDGHHVDARPVEPVQGERDGRAGGSGMSLIKSVRHWLRRHPTVATEPATPPARGAHRGQVDHVILFDGTCSSLEAGHETNVGLIFKLLREERRSVQRTIYYEPGLQWGGWLRIGDLVQGKGLNRQIRRAYGYLASHYQPGDRIFLFGYSRGAYAARSLAGVIDRVGLLRREEATERNVRLAWRHYEQGSIRPHARAFSRRHCHARVEIEMVGIFDTVKALGLRLPLLWRLSEDRHAFHSHKLGRTVRHGFHALALDETRTVFEPVLWDYPYHGQIVEQAWFRGGHGDIGGQLAGGRHGSRLLSNIPLVWMLERATHCGLQLPEGWRARHPCDVTAPMTSMYAGWGKIFLSRQRRPTLRCPTEYIHPTALRPEPRRRKWRLRWGGAPEGEPTQGLEHHHHHH | not soluble |
| MSEKTNPNLTLHDVTDKLEGDDEKYATALKTCGEVFAEVEAIFNDENYLSHAGWFKDESNNEGDVVYAKDTPHGRMVTISTELPMPVEDVMKETWNGMEALPEWNQNINFAARIAAPTSNFDIVTYGNNDVLVVSGREFVSARIWRKVGDGFILASRSVTVPSFKSKHKGKVRAHLHLAGARFRPNPENPETTLTDVVMLADLKGYLPKMIVNQVIGRIMIMDTVTNRRHFQNLKAKRTNN | not soluble |
| GPGSMLGWSGTRFAAALHLRSVCSPRSAAAQGSHARAPRALSSSSSFVALFGSARGFSGTARRFSGTFHYRKVRLTPEDALDPLTKPTNIDKAALHVVSVPIGNLKDFSLRALDVLRGVDYIITTDRPATKTLLDLVNIPNQGRLIHYSRGNRSTSREKLVELLKGGRSMALVTTSGTPCIGDVGGELVQELQKSGIRVTAVPGASALMSALAISGLTTSAYESAKNDKRGADAAADGEAGLSPQTFEDGSFFFGNVLPKSHGARLRILRTIVAPATFPCVFYEVPYRLVMVLQDIASVLPHRFVYVTHELTKLNESLHADTAERLVGFYLRQEAQMLVKKGQLVLVIAGAGPKETAAWLEKEAAKRRRLRRTVSDLMKDAPPAASSHLESAPGTGGTTAAASSSRESSVTTAKEERRQRRKQRAELRRLRQRKKRERLIRAIESEQERLRVILSINRNDASRLM | not soluble |
| MGSDKIHHHHHHGETIDLGHDTTLDYSVTASYGAAVRTGTQSNTLLSPANINGDDGNRNFKRGDMTANRVSLLGEAHVKHDAFGALVRGSVFYDWAYSGTNSNNAPGTVNHSGPFNEFTGSARDYHESRAQLLDAYVYGAVPIESTQLSFKLGNQVVAWGESLFFANIAGAQGPADATKAFVPGAEVKDILLPVPQASVQWQVTPAFSLMGYYQFTFKPNQLFAPGSYFSTSDIVGPGAEFIIGPGFRIPRGPDISPSDWGQWGIGGRFRVFEDTEIGLYQLRYHDKNPSVVTSLFPTLQYQQKYFGGINLTGASFSTQLAGANVAGEVSYKDGVPMLVDVAGSPTASRGKALQAQLSAIYAIGPTFLANSQTLLGEIAYLHVIGVDSVMGFDKLSNTRNSAAFQVGWSLTYNNVFDGWDLTVPLTYAQQFSGNAAVAGAFGTLMGYGDKRASVGLTFKYLNNLELNLTYAAFIGGASIANRPLADRDYVAFNAKYSF | not soluble |
| MGSDKIHHHHHHMIEKVEEKSKIIKTSKEYKRTIIEEKDKEWTKKLNDILSRSSFSNDELDKIKALIPKEILTNENVGEVVTEDGYAKPEYDEVFKSLFTLNNEYDLLVNFINDILKDAPYANRNIKPFTQIKRIIRVETDPTINYIGEKRPRLDILAEDEENNHINIEMQRAFENDYLERAEYYLSRVHGRKLEEGKEYKEIGKTIGIHILNHVKYNHIEDYVNCLRLTMDGHPDIYSSKTALYFIELPKIHKSDYIVNRIMLWGKLISNPSNLDVRVIAKNDSIIKKALDRLKELGSNEEYLLNLKRGAYIMNKSRNFKEEIERETAIRVAKEKDYKIIIMLKKNGFKLDDILNKFNDFDLSEDEIKEVYENN | not soluble |
| MGDILAHESELLGLVKEYLDFAEFEDTLKTFSKECKIKGKPLCKTVGGSFRDSKSLTIQKDLVAAFDNGDQKVFFDLWEEHISSSIRDGDSFAQKLEFYLHIHFAIYFLKYSVGRPDKEELDEKISYFKTYLETKGAALSQTTEFLPFYALPFVPNPMVHPSFKELFQDSWTPELKLKLEKFLALISKASNTPKLLTIYKENGQSNKEILQQLHQQLVEAERRSVTYLKRYNKIQADYHNLIGVTAELVDSLEATVSGKMITPEYLQSVCVRLFSNQMRQSLAHSVDFTRPGTASTMLRASLAPVKLKDVPLLPSLDYEKLKKDLILGSDRLKAFLLQALRWRLTTSHPGEQRETVLQAYISNDLLDCYSHNQRSVLQLLHSTSDVVRQYMARLINAFASLAEGRLYLAQNTKVLQMLEGRLKEEDKDIITRENVLGALQKFSLRRPLQTAMIQDGLIFWLVDVLKDPDCLSDYTLEYSVALLMNLCLRSTGKNMCAKVAGLVLKVLSDLLGHENHEIQPYVNGALYSILSVPSIREEARAMGMEDILRCFIKEGNAEMIRQIEFIIKQLNSEELPDGVLESDDDEDEDDEEDHDIMEADLDKDELIQPQLGELSGEKLLTTEYLGIMTNTGKTRRKGLANVQWSGDEPLQRPVTPGGHRNGYPV | not soluble |
| MGSDKIHHHHHHMKQFWNWKNYQIAWQVEETSNDSGIAIVLIHGFGACKEHWRFNQKTISSIAPCYALDLIGFGDSSKPNSQIPYEKKTYQNFNYCFDNWSQLVYDFCNEIVKKPVLLIGNSIGGVIALNTSKKLSQKALGVILIDCAQRTMDDKRLAEQSLLMRFLRPVIKTFVRQRLLSSNIFNIAAQPKFIAKILKVAYPSRNNVDEELIDTLFKPTQSKGAPEAFRGFINLFDDYLAPNLLKEMNTSVHLIWGEKDPWEPVKEAQKWFKTFECIKSLDVISDAGHCPHDEMPEKVNPILIKIIQEAI | not soluble |
| MAHHHHHHMAKLLPPPFHGYIRKMFFPLRNAASASRKCCLHTHVQQKNGMMKTTPLISKRSYFTSLYDTKTEKTKLMNEMDDLYDHILTSNWNDSVHLVLNVSIWEGILNSIEDKVKLYEQDEDIMKKKKIINEIFDVLFILEDLRDHVNELLEQSSRASGLAGTHILASFKIENMNEHIEFLKTKYDELLLKYPLYKYQIDMVLGKGLALLRQKYNFEWRHMHNFFF | not soluble |
